Source: patent EP1160320A1 (INSTITUT NATIONAL DE LA SANTE ET DE LA RECHERCHE MEDICALE …, dated 2001)

Biological target: T1, hTAFII80δ (human, UniProt P49848 1-677)
T1 construct: Endogenous protein immunoprecipitated from HeLa extracts; also called hTAFII80 delta; δ isoform of hTAFII80
Test: co-immunoprecipitation of endogenous hTAFII80δ complexes from HeLa cells, immunoblot

T1 sequence (P49848 other isoform, or with tags, fused parts or gaps mutant limits assumed): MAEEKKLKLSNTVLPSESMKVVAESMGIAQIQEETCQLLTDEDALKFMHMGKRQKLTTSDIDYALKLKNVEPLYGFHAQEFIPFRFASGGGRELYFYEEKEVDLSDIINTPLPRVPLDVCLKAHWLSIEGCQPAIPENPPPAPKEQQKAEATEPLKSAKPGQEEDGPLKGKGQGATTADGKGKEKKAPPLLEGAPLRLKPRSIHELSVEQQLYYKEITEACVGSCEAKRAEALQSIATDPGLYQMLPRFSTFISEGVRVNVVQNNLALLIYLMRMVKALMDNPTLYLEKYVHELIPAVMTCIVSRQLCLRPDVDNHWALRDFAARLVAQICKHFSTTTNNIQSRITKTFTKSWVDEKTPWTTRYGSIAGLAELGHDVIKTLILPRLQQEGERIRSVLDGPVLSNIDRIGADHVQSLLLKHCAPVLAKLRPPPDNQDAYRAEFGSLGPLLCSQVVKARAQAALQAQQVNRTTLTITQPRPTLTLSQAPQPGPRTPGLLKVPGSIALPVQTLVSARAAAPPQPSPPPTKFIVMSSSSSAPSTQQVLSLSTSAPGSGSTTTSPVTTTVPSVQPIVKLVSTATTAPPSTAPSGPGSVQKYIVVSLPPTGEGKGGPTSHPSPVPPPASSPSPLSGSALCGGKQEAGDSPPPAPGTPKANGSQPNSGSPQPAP

B1: hTAFII31 (other, human, UniProt Q16594 1-264, looked up)
chain: MESGKTASPKSMPKDAQMMAQILKDMGITEYEPRVINQMLEFAFRYVTTILDDAKIYSSHAKKATVDADDVRLAIQCRADQSFTSPPPRDFLLDIARQRNQTPLPLIKPYSGPRLPPDRYCLTAPNYRLKSLQKKASTSAGRITVPRLSVGSVTSRPSTPTLGTPTPQTMSVSTKVGTPMSLTGQRFTVQMPTSQSPAVKASIPATSAVQNVLINPSLIGSKNILITTNMMSSQNTANESSNALKRKREDDDDDDDDDDDYDNL
notes: Baculovirus-produced in SF9 extracts for the pull-down; endogenous in HeLa cells for the co-immunoprecipitation; No tag is stated; also called recombinant hTAFII31; histone H3-like hTAFII31
  binding result: no binding
